No end group written: not given here. Alexa594 = Alexa594 fluorescent dye
Assays:
[1] = molecular target: T1, TAZ1 domain of CREB-binding protein (CBP), mouse CBP residues 340 to 439 (mouse, UniProt P45481 340-439); test: fluorescence polarisation
[2] = molecular target: T1, TAZ1 domain of CREB-binding protein …; test: fluorescence polarisation; remark: listed apart in the source
[3] = molecular target: preformed complex of 15N-TAZ1 and HIF-1α (mouse | human, UniProt P45481 340-439; Q16665 776-826); test: NMR titration
Chain of preformed complex of 15N-TAZ1 and HIF-1α (P45481 340-439, one chain of several): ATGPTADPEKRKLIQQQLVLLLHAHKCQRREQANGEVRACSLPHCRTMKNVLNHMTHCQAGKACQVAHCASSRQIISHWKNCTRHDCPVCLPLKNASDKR

[4] = molecular target: T1, TAZ1 domain of CREB-binding protein …; test: NMR titration
[5] = molecular target: T1, TAZ1 domain of CREB-binding protein …; test: fluorescence polarisation; remark: listed apart in the source

T1 sequence (P45481 340-439): as the sequence (P45481 340-439, one chain of several) above

B1: Alexa594-labeled CITED 216-269 peptide (labelled at C261) (peptide)
chain: GSHMSNVIDTDFIDEEVLMSLVIEMGLDRIKELPELWLGQNEFDFMTDFVC(Alexa594)KQQPSRVS
B1: binds [1].

B2: Alexa594-labeled CITED APAA peptide (labelled at C261) (peptide)
chain: GSHMSNVIDTDFIDEEVLMSLVIEMGLDRIKEAPAAWLGQNEFDFMTDFVC(Alexa594)KQQPSRVS
B2: binds [2].

B3: CITED APAA peptide (CITED2 216-269 with the nonproline residues of the LPEL motif mutated to alanine) (peptide)
chain: GSHMSNVIDTDFIDEEVLMSLVIEMGLDRIKEAPAAWLGQNEFDFMTDFVCKQQPSRVS
B3: binds [3]; binds [4].

B4: Alexa594-labeled HIF-1α peptide (C800V, labelled at C780) (peptide)
chain: GSHMSDLAC(Alexa594)RLLGQSMDESGLPQLTSYDVEVNAPIQGSRNLLQGEELLRALDQVN
B4: binds [5].
